{
  "source": "paper PMC8597827",
  "about": "“The effect of S427F mutation on RXRα activity depends on its dimeric partner†”",
  "binders": {"B1": {"name": "DR1 (dsDNA)", "DNA 1": "TCGAGGGTAGGGGTCAGAGGTCACTCGTCGA", "DNA 2": "TCGACGAGTGACCTCTGACCCCTACCCTCGA"}},
  "molecular_target": "RXRα WT (human, UniProt P19793 1-462)",
  "sequence (P19793 whole entry)": "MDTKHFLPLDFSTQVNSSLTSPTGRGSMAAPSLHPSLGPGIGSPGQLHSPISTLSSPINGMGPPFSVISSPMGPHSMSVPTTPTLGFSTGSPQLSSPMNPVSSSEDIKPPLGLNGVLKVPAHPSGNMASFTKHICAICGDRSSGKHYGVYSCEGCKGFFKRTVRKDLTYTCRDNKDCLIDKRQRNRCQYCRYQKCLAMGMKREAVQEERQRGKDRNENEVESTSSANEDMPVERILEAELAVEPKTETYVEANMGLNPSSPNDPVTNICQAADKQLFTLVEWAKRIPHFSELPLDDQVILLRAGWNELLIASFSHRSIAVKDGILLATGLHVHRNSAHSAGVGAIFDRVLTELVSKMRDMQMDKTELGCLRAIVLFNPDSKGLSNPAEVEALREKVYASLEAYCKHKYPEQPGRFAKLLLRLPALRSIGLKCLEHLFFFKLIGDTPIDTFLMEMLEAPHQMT",
  "assay": "EMSA; no ligand; two shifts; competed by 5x and 25x unlabeled DR1; 10 mM Tris HCl pH 8.0, 150 mM KCl, 0.5 mM EDTA, 0.1% Triton X-100, 12.5% glycerol, 0.2 mM DTT, 1 ug poly(dI-dC), 100 pmol probe in 20 uL; 10 min RT then 5 min 37 C; 5% PAGE in 0.5x TBE at 4 C",
  "details": "protein: recombinant; chain copies: 2; blunt",
  "data": [
    {"binder": "B1", "values": [
      {"measurement": "binding result", "result": "binds"}
    ]}
  ]
}
